Assay results as given in publication PMC8992277 (ACS Omega, 2022).

Biological target: T1, Human neuroglobin (human, UniProt Q9NPG2 1-151)
T1 sequence (looked up): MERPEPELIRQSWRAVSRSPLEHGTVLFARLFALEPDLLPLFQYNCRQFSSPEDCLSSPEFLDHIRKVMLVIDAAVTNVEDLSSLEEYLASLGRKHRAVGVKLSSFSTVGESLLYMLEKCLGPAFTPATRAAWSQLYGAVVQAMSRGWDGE
Assay: ITC

B1: Human cytochrome c I81N variant (natural protein)
chain: not shown
modifications: heme c covalently linked to the peptide chain via two thioether bonds through the CXXCH motif
In the case of B1, the Ka is reported as 5300 M⁻¹, the Kd is reported as 189 µM and the “dH, fold of that of WT hCyt c binding to Ngb” value is reported as about 6 fold.
